Source: publication doi:10.1101/2024.05.08.592561 (bioRxiv, 2024)

Key:
mass photometry = molecular target: the molecule itself; assay: mass photometry
ParT = molecular target: T1, ParT (Streptomyces coelicolor A3(2), plasmid …, UniProt Q8VWE5 1-325); assay: BLI
T1 sequence: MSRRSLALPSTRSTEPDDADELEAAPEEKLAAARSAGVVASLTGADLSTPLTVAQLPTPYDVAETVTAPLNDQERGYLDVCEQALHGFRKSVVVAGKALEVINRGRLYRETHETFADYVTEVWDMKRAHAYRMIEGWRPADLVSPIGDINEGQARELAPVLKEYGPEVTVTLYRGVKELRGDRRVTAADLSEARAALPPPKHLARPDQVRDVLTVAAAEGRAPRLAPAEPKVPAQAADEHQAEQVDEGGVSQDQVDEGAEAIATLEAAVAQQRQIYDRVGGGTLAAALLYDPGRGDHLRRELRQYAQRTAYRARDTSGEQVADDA

B1: ParT-His6 (wild type) (natural protein)
chain: MSRRSLALPSTRSTEPDDADELEAAPEEKLAAARSAGVVASLTGADLSTPLTVAQLPTPYDVAETVTAPLNDQERGYLDVCEQALHGFRKSVVVAGKALEVINRGRLYRETHETFADYVTEVWDMKRAHAYRMIEGWRPADLVSPIGDINEGQARELAPVLKEYGPEVTVTLYRGVKELRGDRRVTAADLSEARAALPPPKHLARPDQVRDVLTVAAAEGRAPRLAPAEPKVPAQAADEHQAEQVDEGGVSQDQVDEGAEAIATLEAAVAQQRQIYDRVGGGTLAAALLYDPGRGDHLRRELRQYAQRTAYRARDTSGEQVADDA
Q: Which “stoichiometry N” value (mass photometry) does the source give for B1 here?
A: 2

B2: 40-bp parS duplex (dsDNA)
DNA 1: GGCCGACCTCGTGTCTCCAATTGGAGACATCAACGAGGGC
DNA 2: GCCCTCGTTGATGTCTCCAATTGGAGACACGAGGTCGGCC
Q: B2 was tested. Which Kd (ParT) did it give?
A: 680 ± 200 nM

B3: 40-bp scrambled parS duplex (dsDNA)
DNA 1: ATCGGGCACCTTAGGGCAATCGTAAGTTCGGCGCACGACC
DNA 2: GGTCGTGCGCCGAACTTACGATTGCCCTAAGGTGCCCGAT
Q: Does B3 bind (ParT)?
A: no binding
